Key:
[1] = target: MtMce4A_(39–140) (Mycobacterium tuberculosis H37Rv); experiment: crystal structure; native protein, 7.5 mg ml^−1; 100 mM sodium HEPES, 100 mM LiCl2, 20% PEG 400 pH 7.5, 22°C; space group P6_(5), 2.9 Å
[2] = target: MtMce4A_(39–140) (Mycobacterium tuberculosis H37Rv); experiment: SEC-MALS; in crystallization buffer (0.1 M MES, 0.7 M ammonium sulfate pH 6.0) after slow heating from 20 to 50°C (0.8°C per minute); supernatant on Superdex 200 10/300

MtMce4A_(39–140) (domain or fragment) gave a stoichiometry N [1] of 2 and a stoichiometry N [2] of 2.

— paper PMC8420772
